Laboratory results as given in publication PMC11466968.
Each block holds one substance with its values, some of them ahead of it.

Assays:
HRI = HRI (UniProt Q9BQI3); experiment: co-immunoprecipitation with anti-FLAG antibody; settings: reference: wild type BAG3-FLAG; sites S173,S377,S386
BAG3 = BAG3 (UniProt O95817); experiment: co-immunoprecipitation; settings: sites T287

binding against the reference (HRI): weaker
Substance: BAG3 (from UniProt O95817) BAG3 3A (S173A/S377A/S386A)

binding against the reference (BAG3; reference: wild type CaMKIIβ): weaker
Substance: CaMKIIβ (from UniProt Q13554) CaMKIIβ T287A

binding against the reference (BAG3; reference: wild type CaMKIIδ): weaker
Substance: CaMKIIδ (from UniProt Q13557) CaMKIIδ T287A
